B1: Mitogen-activated protein kinase kinase kinase 3 (Homo sapiens), Q99759 (parent)
chain: MDEQEALNSIMNDLVALQMNRRHRMPGYETMKNKDTGHSNRQSDVRIKFEHNGERRIIAFSRPVKYEDVEHKVTTVFGQPLDLHYMNNELSILLKNQDDLDKAIDILDRSSSMKSLRILLLSQDRNHNSSSPHSGVSRQVRIKASQSAGDINTIYQPPEPRSRHLSVSSQNPGRSSPPPGYVPERQQHIARQGSYTSINSEGEFIPETSEQCMLDPLSSAENSLSGSCQSLDRSADSPSFRKSRMSRAQSFPDNRQEYSDRETQLYDKGVKGGTYPRRYHVSVHHKDYSDGRRTFPRIRRHQGNLFTLVPSSRSLSTNGENMGLAVQYLDPRGRLRSADSENALSVQERNVPTKSPSAPINWRRGKLLGQGAFGRVYLCYDVDTGRELASKQVQFDPDSPETSKEVSALECEIQLLKNLQHERIVQYYGCLRDRAEKTLTIFMEYMPGGSVKDQLKAYGALTESVTRKYTRQILEGMSYLHSNMIVHRDIKGANILRDSAGNVKLGDFGASKRLQTICMSGTGMRSVTGTPYWMSPEVISGEGYGRKADVWSLGCTVVEMLTEKPPWAEYEAMAAIFKIATQPTNPQLPSHISEHGRDFLRRIFVEARQRPSAEELLTHHFAQLMY

Variants of: B1
Settings: with CCM2, Q9BSQ5-1
CCM2, Q9BSQ5-1, sequence (Q9BSQ5 whole entry): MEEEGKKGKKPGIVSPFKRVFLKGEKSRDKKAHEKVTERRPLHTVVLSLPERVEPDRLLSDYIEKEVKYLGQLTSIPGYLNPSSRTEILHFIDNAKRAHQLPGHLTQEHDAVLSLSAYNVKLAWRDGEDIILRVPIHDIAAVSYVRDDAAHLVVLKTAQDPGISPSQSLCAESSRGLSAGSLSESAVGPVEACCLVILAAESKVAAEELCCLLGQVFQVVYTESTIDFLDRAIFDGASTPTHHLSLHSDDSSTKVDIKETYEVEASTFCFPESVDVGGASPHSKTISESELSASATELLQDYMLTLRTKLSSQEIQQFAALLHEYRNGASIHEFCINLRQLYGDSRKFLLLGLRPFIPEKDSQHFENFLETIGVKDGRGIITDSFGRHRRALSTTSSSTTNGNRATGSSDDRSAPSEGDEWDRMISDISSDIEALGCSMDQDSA

Effect of a mutation on the interaction, disrupting interaction strength:
L7D
I10D
L14D
L17D
